For 13 molecules, EC50, Ka and Kd results are on record in patent publication US20180142007A1 (published 2018).

As a reminder, the EC50 is the concentration giving half of the maximal effect. Lower therefore signals greater potency. As usually defined, the Kd is the concentration at which binding is half-saturated. A high value points to lower affinity.

Numbering of substitutions follows the chain as printed. Read-outs that look alike come from different tables or passages of the source.

In test [1] the target is T1, tau peptide 282-311.
T1 peptide: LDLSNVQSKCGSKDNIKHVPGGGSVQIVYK
The test is described as follows: ELISA. A general note: In an ELISA, binding on a coated surface is turned into a signal by an enzyme label.

The target of test [2] is T2, full length physiological tau 2N4R (UniProt P10636 1-758). The test is described as follows: SPR; IgG4.
Test [3] deals with T3, misdisordered truncated tau 151-391/4R (UniProt P10636 468-708). As to the kind of experiment: SPR; IgG4.
The target of test [4] is T4, tau peptide 314-342.
T4 peptide: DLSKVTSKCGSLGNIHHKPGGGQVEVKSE
As to the kind of experiment: ELISA; IgG4.

In test [5] the target is T5, tau peptide 352-380.
T5 peptide: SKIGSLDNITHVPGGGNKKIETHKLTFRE
The test is described as follows: ELISA; IgG4.

For test [6], the target named is T6, tau peptide 256-285.
T6 peptide: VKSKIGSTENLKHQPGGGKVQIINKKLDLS
As to the kind of experiment: ELISA; IgG4.

The target of test [7] is T4, tau peptide 314-342. The test is described as follows: ELISA.
For test [8], the target named is T5, tau peptide 352-380. As to the kind of experiment: ELISA.
The target of test [9] is T1, tau peptide 282-311. The test is described as follows: ELISA.
The target of test [10] is T6, tau peptide 256-285. The test is described as follows: ELISA.
Test [11] addresses T2, full length physiological tau 2N4R. The test is described as follows: SPR; IgG1. (SPR reads the build-up and loss of mass on a sensor chip optically.)
Test [12] concerns the target T3, misdisordered truncated tau 151-391/4R. As to the kind of experiment: SPR; IgG1.
The target in test [13] is T2, full length physiological tau 2N4R. The test is described as follows: ELISA; IgG1.
In test [14] the target is T3, misdisordered truncated tau 151-391/4R. As to the kind of experiment: ELISA; IgG1.
The target is the same in test [15]. The test is described as follows: SPR.
Test [16] has the same target. The test is described as follows: SPR. The source holds these as a separate data set.
Test [17] has the same target. The test is described as follows: SPR. The source holds these as a separate data set.
Test [18] concerns the target T2, full length physiological tau 2N4R. The test is described as follows: SPR.
Test [19] deals with T3, misdisordered truncated tau 151-391/4R. As to the kind of experiment: SPR. The source holds these as a separate data set.
The target in test [20] is T4, tau peptide 314-342. As to the kind of experiment: ELISA.
Test [21] has as its target T5, tau peptide 352-380. The test is described as follows: ELISA.
For test [22], the target named is T1, tau peptide 282-311. The test is described as follows: ELISA.
For test [23], the target named is T6, tau peptide 256-285. As to the kind of experiment: ELISA.
Test [24] addresses T4, tau peptide 314-342. The test is described as follows: ELISA.
Test [25] concerns the target T5, tau peptide 352-380. The test is described as follows: ELISA.
Test [26] concerns the target T6, tau peptide 256-285. As to the kind of experiment: ELISA.
Test [27] addresses T3, misdisordered truncated tau 151-391/4R. As to the kind of experiment: ELISA.
For test [28] the target is unchanged. The test is described as follows: SPR. This is another data set of the same source.

T2 sequence (P10636 other isoform, or with tags, fused parts or gaps): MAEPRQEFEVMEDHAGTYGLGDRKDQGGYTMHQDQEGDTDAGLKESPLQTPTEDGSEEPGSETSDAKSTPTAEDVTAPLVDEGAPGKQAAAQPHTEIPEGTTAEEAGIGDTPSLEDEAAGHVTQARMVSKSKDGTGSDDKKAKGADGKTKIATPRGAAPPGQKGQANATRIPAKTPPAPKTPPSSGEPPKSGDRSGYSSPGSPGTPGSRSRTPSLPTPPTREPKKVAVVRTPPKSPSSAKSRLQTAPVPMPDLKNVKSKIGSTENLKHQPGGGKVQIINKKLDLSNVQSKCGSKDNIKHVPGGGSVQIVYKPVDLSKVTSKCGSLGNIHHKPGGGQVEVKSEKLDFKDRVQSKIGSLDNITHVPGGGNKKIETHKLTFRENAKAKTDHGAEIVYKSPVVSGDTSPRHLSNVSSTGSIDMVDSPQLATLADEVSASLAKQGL
T3 sequence (P10636 468-708): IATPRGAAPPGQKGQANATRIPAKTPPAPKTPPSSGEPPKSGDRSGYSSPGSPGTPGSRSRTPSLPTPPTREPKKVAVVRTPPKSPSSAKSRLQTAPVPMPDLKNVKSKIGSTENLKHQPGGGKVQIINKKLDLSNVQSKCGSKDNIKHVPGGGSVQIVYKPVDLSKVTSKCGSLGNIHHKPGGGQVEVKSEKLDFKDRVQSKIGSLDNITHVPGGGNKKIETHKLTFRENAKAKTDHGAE

B1: AX016-IgG4, humanized DC8E8 RHD/RKB, IgG4 isotype (antibody)
heavy: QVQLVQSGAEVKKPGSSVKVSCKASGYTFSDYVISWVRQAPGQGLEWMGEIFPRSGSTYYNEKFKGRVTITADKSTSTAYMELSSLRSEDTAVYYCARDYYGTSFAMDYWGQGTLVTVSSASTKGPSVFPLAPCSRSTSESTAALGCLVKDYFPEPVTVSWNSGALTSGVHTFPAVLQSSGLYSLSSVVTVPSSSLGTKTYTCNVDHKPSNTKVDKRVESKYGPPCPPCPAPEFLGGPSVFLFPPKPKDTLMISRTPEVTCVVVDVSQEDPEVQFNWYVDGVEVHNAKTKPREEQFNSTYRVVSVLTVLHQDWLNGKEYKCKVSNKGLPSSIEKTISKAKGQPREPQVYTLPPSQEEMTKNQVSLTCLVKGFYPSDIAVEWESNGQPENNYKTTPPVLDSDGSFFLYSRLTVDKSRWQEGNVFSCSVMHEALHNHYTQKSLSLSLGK
light: DIVMSQSPLSLPVTPGEPASISCKSSQSLLNSRTRKNYLAWYLQKPGQSPQLLIYWASTRESGVPDRFTGSGSGTDFTLKISRVEAEDVGVYYCKQSFYLRTFGQGTKVEIKRTVAAPSVFIFPPSDEQLKSGTASVVCLLNNFYPREAKVQWKVDNALQSGNSQESVTEQDSKDSTYSLSSTLTLSKADYEKHKVYACEVTHQGLSSPVTKSFNRGEC
On to B1, for which the EC50 in [1] is 0.00756 µg/mL; in test [4], 0.0153 µg/mL; in test [5] it was 0.085 µg/mL; in test [6], 0.0139 µg/mL. Moreover, the Ka in test [2] is 6.6e+07 M⁻¹; in [3], 7.2e+08 M⁻¹.

B2: AX017-IgG1, humanized DC8E8 RHE/RKB, IgG1 isotype (antibody)
heavy: not shown
light: B1 light
On to B2, for which the EC50 in test [7] came out at 0.096 µg/mL; in test [8] it was 0.883 µg/mL; in [9], 0.00766 µg/mL.

B3: AX016-IgG1, humanized DC8E8 RHD/RKB, IgG1 isotype (antibody)
heavy: not shown
light: B1 light
Take B3: the EC50 worked out at 0.0122 µg/mL in [7]; 0.0566 µg/mL in test [8]; 0.00647 µg/mL in test [9]; 0.0117 µg/mL in test [10]; 0.0513 µg/mL in test [13]; 0.0137 µg/mL in test [14]. For the same molecule, the Ka in test [11] came to 1.9e+08 M⁻¹; in test [12] it was 1.6e+09 M⁻¹.

B4: AX004-IgG1, humanized DC8E8 RHD/RKA, IgG1 isotype (antibody)
heavy: not shown
light: B1 light with S5T
For B4, the EC50 amounted to 0.0118 µg/mL in test [7]; 0.0587 µg/mL in test [8]; 0.00598 µg/mL in test [9]; 0.0121 µg/mL in test [10]; 0.0532 µg/mL in test [13]; 0.0147 µg/mL in [14]. Moreover, the Ka in test [11] came out at 1.1e+08 M⁻¹; in [12] it was 1.6e+09 M⁻¹.

B5: AX004-IgG4, humanized DC8E8 RHD/RKA, IgG4 isotype (antibody)
heavy: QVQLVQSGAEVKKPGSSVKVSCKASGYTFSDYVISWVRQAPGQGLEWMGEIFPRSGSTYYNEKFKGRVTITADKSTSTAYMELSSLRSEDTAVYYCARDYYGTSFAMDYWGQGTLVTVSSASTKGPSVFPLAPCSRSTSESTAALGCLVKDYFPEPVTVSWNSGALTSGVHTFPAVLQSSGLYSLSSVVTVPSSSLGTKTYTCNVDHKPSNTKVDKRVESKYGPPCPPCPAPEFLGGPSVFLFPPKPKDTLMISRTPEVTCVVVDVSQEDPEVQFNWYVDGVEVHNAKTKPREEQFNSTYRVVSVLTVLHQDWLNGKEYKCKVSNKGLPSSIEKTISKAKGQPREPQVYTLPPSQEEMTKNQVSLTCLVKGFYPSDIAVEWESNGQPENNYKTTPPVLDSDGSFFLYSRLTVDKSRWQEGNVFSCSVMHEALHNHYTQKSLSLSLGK
light: B1 light with S5T
Consider B5, for which the EC50 in [1] came out at 0.0067 µg/mL; in test [4], 0.013 µg/mL; in test [5] it was 0.0814 µg/mL; in test [6], 0.0132 µg/mL. The Ka amounted to 6.5e+07 M⁻¹ in [2] and 7.75e+08 M⁻¹ in test [3].

B6: AX017-IgG4, humanized DC8E8 RHE/RKB, IgG4 isotype (antibody)
heavy: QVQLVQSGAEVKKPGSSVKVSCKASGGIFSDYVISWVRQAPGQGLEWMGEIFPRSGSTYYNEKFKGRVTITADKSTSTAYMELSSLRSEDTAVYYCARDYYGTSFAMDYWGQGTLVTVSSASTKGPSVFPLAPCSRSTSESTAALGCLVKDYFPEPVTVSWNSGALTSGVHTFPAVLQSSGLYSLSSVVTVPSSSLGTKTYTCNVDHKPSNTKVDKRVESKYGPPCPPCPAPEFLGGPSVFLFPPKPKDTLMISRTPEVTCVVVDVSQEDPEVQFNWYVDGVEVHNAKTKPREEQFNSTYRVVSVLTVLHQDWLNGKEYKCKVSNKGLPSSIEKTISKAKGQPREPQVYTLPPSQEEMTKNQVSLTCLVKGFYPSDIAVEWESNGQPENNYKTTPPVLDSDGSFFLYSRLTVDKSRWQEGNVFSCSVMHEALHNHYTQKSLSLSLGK
light: B1 light
Turning to B6, the EC50 in test [1] was 0.00901 µg/mL; in test [4], 0.0726 µg/mL; in [5] it was 0.385 µg/mL.

B7: AX005-IgG4, humanized DC8E8 RHE/RKA, IgG4 isotype (antibody)
heavy: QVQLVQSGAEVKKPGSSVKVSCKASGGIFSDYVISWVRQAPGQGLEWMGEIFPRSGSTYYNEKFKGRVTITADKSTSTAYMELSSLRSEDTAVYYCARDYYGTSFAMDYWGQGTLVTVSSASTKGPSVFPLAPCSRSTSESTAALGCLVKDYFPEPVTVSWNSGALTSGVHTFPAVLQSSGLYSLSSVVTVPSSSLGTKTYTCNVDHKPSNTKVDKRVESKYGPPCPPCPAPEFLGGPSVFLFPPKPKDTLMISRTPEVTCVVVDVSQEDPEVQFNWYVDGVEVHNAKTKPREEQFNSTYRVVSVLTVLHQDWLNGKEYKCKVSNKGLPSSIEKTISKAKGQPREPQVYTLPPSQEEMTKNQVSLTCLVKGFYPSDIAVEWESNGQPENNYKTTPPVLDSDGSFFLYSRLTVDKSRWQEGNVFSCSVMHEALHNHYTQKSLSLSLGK
light: B1 light with S5T
Consider B7, for which the EC50 in test [1] worked out at 0.00898 µg/mL; in test [4], 0.0745 µg/mL; in test [5], 0.397 µg/mL.

B8: AX004, humanized DC8E8 RHD/RKA (isotype not stated where tested) (antibody)
VH: QVQLVQSGAEVKKPGSSVKVSCKASGYTFSDYVISWVRQAPGQGLEWMGEIFPRSGSTYYNEKFKGRVTITADKSTSTAYMELSSLRSEDTAVYYCARDYYGTSFAMDYWGQGTLVTVSS
light: B1 light with S5T
B8: the Kd in test [15] and in [16] was 14.7 nM in each case.

B9: AX005-IgG1, humanized DC8E8 RHE/RKA, IgG1 isotype (antibody)
heavy: not shown
light: B1 light with S5T
As to B9, the results for the EC50 in [7], in [8] and in test [9] were 0.0562 µg/mL, 0.579 µg/mL and 0.0068 µg/mL, respectively.

B10: chimeric DC8E8 (isotype not stated where tested) (antibody)
VH: QVQLQQSGPELVKPGTSVKMPCKASGYIFTDYVISWVKQRTGQGLEWIGEIFPRSGSTYYNEKFKGKATLTADKSSNTAYMQLSSVTSEDSAVYFCARDYYGTSFAMDYWGQGTSVTVSS
light: DIVMSQSPSSLAVSAGEKVTMSCKSSQSLLNSRTRKNYLAWYQQKPGQSPKLLIYWASTRESGVPDRFTGSGSGTDFTLTISSVQAEDLAVYYCKQSFYLRTFGGGTKLDIKRTVAAPSVFIFPPSDEQLKSGTASVVCLLNNFYPREAKVQWKVDNALQSGNSQESVTEQDSKDSTYSLSSTLTLSKADYEKHKVYACEVTHQGLSSPVTKSFNRGEC
For B10, the Kd in [17] and in [16] was 10.4 nM each time. The Ka turned out to be 4.4e+07 M⁻¹ in test [18] and 4.2e+08 M⁻¹ in test [19]. Moreover, the EC50 is 0.0173 µg/mL in test [20]; 0.087 µg/mL in test [21]; 0.00731 µg/mL in test [22]; 0.0212 µg/mL in test [23]; 0.0265 µg/mL in test [24]; 0.0814 µg/mL in test [25]. Further, the results for the EC50 in [1] and in [26] were 0.00852 µg/mL and 0.0297 µg/mL, respectively.

B11: chimeric DC8E8, human IgG4/kappa (antibody)
heavy: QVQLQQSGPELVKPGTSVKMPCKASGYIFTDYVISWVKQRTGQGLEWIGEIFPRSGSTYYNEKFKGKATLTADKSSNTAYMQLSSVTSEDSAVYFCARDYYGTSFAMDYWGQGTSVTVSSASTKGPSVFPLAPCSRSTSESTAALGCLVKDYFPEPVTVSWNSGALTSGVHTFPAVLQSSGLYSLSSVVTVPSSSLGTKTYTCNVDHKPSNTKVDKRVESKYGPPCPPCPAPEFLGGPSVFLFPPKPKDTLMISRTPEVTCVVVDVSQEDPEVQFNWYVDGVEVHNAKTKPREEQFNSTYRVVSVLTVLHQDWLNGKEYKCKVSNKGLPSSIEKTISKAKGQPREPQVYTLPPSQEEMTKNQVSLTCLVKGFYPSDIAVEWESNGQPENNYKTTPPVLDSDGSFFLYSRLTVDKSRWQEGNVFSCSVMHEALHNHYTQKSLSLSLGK
light: B10 light
B11 displayed an EC50 in [27] of 0.0507 µg/mL.

B12: chimeric DC8E8, human IgG1/kappa (antibody)
heavy: not shown
light: B10 light
For B12, in test [27], the EC50 came to 0.0214 µg/mL.

B13: mouse monoclonal antibody DC8E8 (antibody)
heavy: QVQLQQSGPELVKPGTSVKMPCKASGYIFTDYVISWVKQRTGQGLEWIGEIFPRSGSTYYNEKFKGKATLTADKSSNTAYMQLSSVTSEDSAVYFCARDYYGTSFAMDYWGQGTSVTVSSAKTTPPSVYPLAPGSAAQTNSMVTLGCLVKGYFPEPVTVTWNSGSLSSGVHTFPAVLQSDLYTLSSSVTVPSSTWPSQTVTCNVAHPASSTKVDKKIVPRDCGCKPCICTVPEVSSVFIFPPKPKDVLTITLTPKVTCVVVDISKDDPEVQFSWFVDDVEVHTAQTKPREEQINSTFRSVSELPIMHQDWLNGKEFKCRVNSAAFPAPIEKTISKTKGRPKAPQVYTIPPPKEQMAKDKVSLTCMITNFFPEDITVEWQWNGQPAENYKNTQPIMDTDGSYFVYSKLNVQKSNWEAGNTFTCSVLHEGLHNHHTEKSLSHSPGK
VL: DIVMSQSPSSLAVSAGEKVTMSCKSSQSLLNSRTRKNYLAWYQQKPGQSPKLLIYWASTRESGVPDRFTGSGSGTDFTLTISSVQAEDLAVYYCKQSFYLRTFGGGTKLDIK
On to B13, for which the Ka amounted to 3.9e+07 M⁻¹ in [18] and 1.9e+08 M⁻¹ in [19]. In addition, the Kd in test [28] and in test [16] was 10.4 nM in each case. Further, the EC50 in [20] worked out at 0.039 µg/mL; in test [21] it was 0.213 µg/mL; in test [22] it was 0.0118 µg/mL; in test [23], 0.0433 µg/mL; in [27], 0.0448 µg/mL.
